Consider 7 molecules from article doi:10.1101/2020.08.06.225375 (bioRxiv, 2020).

B2: M. smegmatis ATP synthase subunit b-δ (b-δ fusion protein) (natural protein)
chain: MSIFIGQLIGFAVIAFIIVKWVVPPVRTLMRNQQEAVRAALAESAEAAKKLADADAMHAKALADAKAESEKVTEEAKQDSERIAAQLSEQAGSEAERIKAQGAQQIQLMRQQLIRQLRTGLGAEAVNKAAEIVRAHVADPQAQSATVDRFLSELEQMAPSSVVIDTAATSRLRAASRQSLAALVEKFDSVAGGLDADGLTNLADELASVAKLLLSETALNKHLAEPTDDSAPKVRLLERLLSDKVSATTLDLLRTAVSNRWSTESNLIDAVEHTARLALLKRAEIAGEVDEVEEQLFRFGRVLDAEPRLSALLSDYTTPAEGRVALLDKALTGRPGVNQTAAALLSQTVGLLRGERADEAVIDLAELAVSRRGEVVAHVSAAAELSDAQRTRLTEVLSRIYGRPVSVQLHVDPELLGGLSITVGDEVIDGSIASRLAAAQTGLPD
B6: M. smegmatis ATP synthase subunit β with C-terminal 3×FLAG tag (natural protein)
chain: MTATAEKTAGRVVRITGPVVDVEFPRGSVPELFNALHAEITFGALAKTLTLEVAQHLGDSLVRCISMQPTDGLVRGVEVTDTGASISVPVGDGVKGHVFNALGDCLDDPGYGKDFEHWSIHRKPPAFSDLEPRTEMLETGLKVVDLLTPYVRGGKIALFGGAGVGKTVLIQEMINRIARNFGGTSVFAGVGERTREGNDLWVELADANVLKDTALVFGQMDEPPGTRMRVALSALTMAEFFRDEQGQDVLLFIDNIFRFTQAGSEVSTLLGRMPSAVGYQPTLADEMGELQERITSTRGRSITSMQAVYVPADDYTDPAPATTFAHLDATTELSRAVFSKGIFPAVDPLASSSTILDPAIVGDEHYRVAQEVIRILQRYKDLQDIIAILGIDELSEEDKQLVNRARRIERFLSQNMMAAEQFTGQPGSTVPLKETIEAFDKLTKGEFDHLPEQAFFLIGGLDDLAKKAESLGAKL
B7: M. smegmatis ATP synthase subunit a (natural protein)
chain: MLAAEEGGAAIHVGHHTLVFELFGMTFNGDTILATAVTAVIVIALAFYLRAKVTSTGVPSGVQLFWEALTIQMRQQIEGSIGMKIAPFVLPLSVTIFVFILISNWLAVLPLQYGGADGAAAELYKAPASDINFVLALALFVFVCYHAAGIWRRGIVGHPIKVVKGHVAFLAPINIVEELAKPISLALRLFGNIFAGGILVALIAMFPWYIQWFPNAVWKTFDLFVGLIQAFIFSLLTILYFSQSMELDHEDH

Assay in all cases: cryo-EM structure
Data set [1] addresses M. smegmatis ATP synthase subunit α (M. smegmatis, UniProt A0R202 1-548).
For data set [2], the target named is B6.
Data set [3] addresses B7.
The data set “cryo-EM structure” concerns the molecule itself.
For data set [4], the target named is B2.

In general, stoichiometry N refers to the number of molecules, sites or subunits per partner or assembly.

Sequence of M. smegmatis ATP synthase subunit α (A0R202 whole entry): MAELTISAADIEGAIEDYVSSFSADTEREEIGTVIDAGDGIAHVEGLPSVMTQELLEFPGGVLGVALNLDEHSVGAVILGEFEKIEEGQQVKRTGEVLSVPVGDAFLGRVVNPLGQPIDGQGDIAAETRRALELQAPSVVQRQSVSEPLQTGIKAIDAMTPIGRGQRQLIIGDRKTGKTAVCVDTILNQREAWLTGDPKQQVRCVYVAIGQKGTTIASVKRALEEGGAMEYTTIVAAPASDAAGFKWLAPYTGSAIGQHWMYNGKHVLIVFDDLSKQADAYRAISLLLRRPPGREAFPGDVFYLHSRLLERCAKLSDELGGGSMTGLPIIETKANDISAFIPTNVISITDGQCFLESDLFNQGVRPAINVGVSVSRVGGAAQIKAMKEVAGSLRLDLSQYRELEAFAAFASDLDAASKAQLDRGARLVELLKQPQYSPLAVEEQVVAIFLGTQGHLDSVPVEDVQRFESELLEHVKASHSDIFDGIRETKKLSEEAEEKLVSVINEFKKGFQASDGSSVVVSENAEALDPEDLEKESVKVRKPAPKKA

B1: M. smegmatis ATP synthase subunit γ (natural protein)
chain: MAATLRELRGRIRSAGSIKKITKAQELIATSRIAKAQARVEAARPYAAEITNMLTELAGASALDHPLLVERKQPKRAGVLVVSSDRGLCGAYNANVLRRAEELFSLLRDEGKDPVLYVVGRKALGYFSFRQRTVVESWTGFSERPTYENAREIADTLVNAFMAGADDEGDDAGADGILGVDELHIVFTEFRSMLSQTAVARRAAPMEVEYVGEVETGPRTLYSFEPDPETLFDALLPRYIATRVYAALLEAAASESASRRRAMKSATDNADDLIKALTLAANRERQAQITQEISEIVGGANALAGSK
As to B1, the binding result in data set [1] and in data set [2] was “binds” each time.

For B2, the binding result in data set [1] and in data set [2] was “binds” in each case.

B3: M. smegmatis ATP synthase subunit c (natural protein)
chain: MDLDPNAIITAGALIGGGLIMGGGAIGAGIGDGIAGNALISGIARQPEAQGRLFTPFFITVGLVEAAYFINLAFMALFVFATPGLQ
For the molecule B3, the binding result in data set [2] and in data set [3] was “binds” each time. In the data set “cryo-EM structure”, the “stoichiometry N” value came to 9.

B4: M. smegmatis ATP synthase subunit ε (natural protein)
chain: MADLNVEIVAVERELWSGPATFVFTRTTAGEIGILPRHIPLVAQLVDDAMVRVEREGEDDLRIAVDGGFLSVTEETVRILVENAQFESEIDADAAKEDAASDDERTAAWGRARLRALGQID
Regarding B4, the binding result in data set [2] is listed as “binds”.

B5: M. smegmatis ATP synthase subunit b′ (natural protein)
chain: MGEFSATILAASQAAEEGGGGSNFLIPNGTFFAVLIIFLIVLGVISKWVVPPISKVLAEREAMLAKTAADNRKSAEQVAAAQADYEKEMAEARAQASALRDEARAAGRSVVDEKRAQASGEVAQTLTQADQQLSAQGDQVRSGLESSVDGLSAKLASRILGVDVNSGGTQ
In the case of B5, the binding result in data set [2] and in data set [3] was “binds” each time. B6: the binding result in data set [1] was “binds”.

For the molecule B7, the binding result in data set [2] and in data set [4] was “binds” throughout.
